Non-standard residues stand in square brackets, D forms with d. No end group written: not given here. *: point of attachment. FITC = O=C1OC2(c3ccc(O)cc3Oc3cc(O)ccc32)c2ccc(NC(=S)*)cc21; pS = N[C@@H](COP(=O)(O)O)C(=O)O; Ahx = NCCCCCC(=O)O
Legend:
[1] = molecular target: T1, 14-3-3ɛ (full length) (human, UniProt P62258 1-255); assay: fluorescence polarisation; 14-3-3 isoforms (full length) serially diluted twofold in the presence of 10 nM FITC-labelled peptide; 50 mM Tris pH 7.5, 150 mM NaCl, 5 mM MgCl2, 0.05% Tween-20 (no reducing agent listed); one-site specific binding model; conditions: both partners purified
T1 construct: 14-3-3 protein epsilon, human, full length; Expressed from a pPRoeX-Htb vector; also called 14-3-3 isoform ɛ; source: E. coli NiCo21(DE3), purified (nickel column, TEV cleavage, second nickel column, SEC)
T1 sequence (looked up): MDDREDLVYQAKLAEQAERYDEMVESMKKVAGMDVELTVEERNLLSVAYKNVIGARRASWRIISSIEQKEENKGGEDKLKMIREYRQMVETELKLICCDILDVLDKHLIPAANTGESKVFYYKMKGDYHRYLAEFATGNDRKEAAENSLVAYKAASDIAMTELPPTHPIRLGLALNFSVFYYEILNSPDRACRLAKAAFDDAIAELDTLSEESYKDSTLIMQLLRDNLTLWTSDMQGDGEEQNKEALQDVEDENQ

[2] = molecular target: T2, 14-3-3β (full length) (human, UniProt P31946 1-246); assay: FP
T2 chain: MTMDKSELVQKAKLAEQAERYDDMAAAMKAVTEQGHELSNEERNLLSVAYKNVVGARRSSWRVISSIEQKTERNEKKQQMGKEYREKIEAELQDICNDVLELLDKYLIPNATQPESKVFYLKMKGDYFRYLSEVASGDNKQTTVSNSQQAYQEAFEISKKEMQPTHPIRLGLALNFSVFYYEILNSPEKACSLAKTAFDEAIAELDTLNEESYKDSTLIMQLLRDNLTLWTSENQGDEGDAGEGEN

[3] = molecular target: T3, 14-3-3τ (full length) (human, UniProt P27348 1-245); assay: FP
T3 chain: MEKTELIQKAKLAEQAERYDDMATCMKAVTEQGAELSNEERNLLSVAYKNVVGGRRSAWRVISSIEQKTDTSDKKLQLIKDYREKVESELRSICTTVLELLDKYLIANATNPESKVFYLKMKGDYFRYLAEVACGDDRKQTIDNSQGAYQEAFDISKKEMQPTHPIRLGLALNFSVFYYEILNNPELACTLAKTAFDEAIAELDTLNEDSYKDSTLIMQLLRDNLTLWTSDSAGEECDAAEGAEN

[4] = molecular target: T4, 14-3-3ζ (full length) (human, UniProt P63104 1-245); assay: FP
T4 chain: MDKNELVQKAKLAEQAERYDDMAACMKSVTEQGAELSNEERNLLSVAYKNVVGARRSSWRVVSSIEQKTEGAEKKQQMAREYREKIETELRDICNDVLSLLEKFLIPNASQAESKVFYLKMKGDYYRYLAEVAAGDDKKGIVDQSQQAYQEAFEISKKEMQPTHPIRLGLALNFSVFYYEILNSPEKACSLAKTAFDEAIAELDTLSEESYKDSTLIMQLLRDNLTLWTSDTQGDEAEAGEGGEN

[5] = molecular target: T5, 14-3-3ɛ (full length) (human, UniProt P62258 1-255); assay: FP
T5 chain: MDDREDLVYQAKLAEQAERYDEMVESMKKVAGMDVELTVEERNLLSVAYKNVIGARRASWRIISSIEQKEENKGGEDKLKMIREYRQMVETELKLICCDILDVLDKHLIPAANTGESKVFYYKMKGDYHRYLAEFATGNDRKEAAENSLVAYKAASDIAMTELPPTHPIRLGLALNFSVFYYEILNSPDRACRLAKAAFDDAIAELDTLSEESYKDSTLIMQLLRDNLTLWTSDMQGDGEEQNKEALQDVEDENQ

[6] = molecular target: T6, 14-3-3σ (full length) (human, UniProt P31947 1-248); assay: ITC; peptide titrated into the cell containing the 14-3-3 protein, 18 injections of 2 µl, 25°C; 50 mM Tris pH 7.5, 150 mM NaCl, 5 mM MgCl2, 2 mM 2-mercaptoethanol, 0.05% Tween-20 (reducing conditions); conditions: both partners purified
T6 construct: 14-3-3 protein sigma, human, full length; Expressed from a pPRoeX-Htb vector; also called 14-3-3 isoform σ; the σ isoform; source: E. coli NiCo21(DE3), purified (nickel column, TEV cleavage, second nickel column, SEC)
T6 sequence (looked up): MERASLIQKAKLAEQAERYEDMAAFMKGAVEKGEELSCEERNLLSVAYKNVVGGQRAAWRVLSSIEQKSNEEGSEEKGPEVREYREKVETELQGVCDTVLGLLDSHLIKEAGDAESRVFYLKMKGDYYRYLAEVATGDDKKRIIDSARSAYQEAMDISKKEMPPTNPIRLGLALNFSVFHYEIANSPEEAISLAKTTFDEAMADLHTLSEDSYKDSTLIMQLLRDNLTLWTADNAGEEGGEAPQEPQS

B1: SHN3pS542 peptide, N-terminally FITC-Ahx-labelled (peptide)
peptide: {FITC-Ahx}-LLRSH[pS]MPSAAC
modifications: also: phosphoserine at 542, position not mapped
notes: Schnurri-3 (SHN3, transcription factor HIVEP3), human, 12-mer around phosphorylated Ser542; also called SHN3pS542-FITC; the FITC-labelled form; source: synthetic peptide, bought: GenScript (purity >95%)
- binding result [1]: binds
- Kd [2]: 1380 nM
- Kd [3]: 1910 nM
- Kd [4]: 2140 nM
- Kd [5]: 2510 nM
- Kd [6]: 4800 ± 800 nM

Reference: PMC8329713, “The identification and structural analysis of potential 14-3-3 interaction sites on the bone regulator protein Schnurri-3” (Acta Crystallographica. Section F, Structural Biology …, 2021)
